Experimental data from article PMC11589706, “Cryo-EM structure of PML RBCC dimer reveals CC-mediated octopus-like nuclear body assembly mechanism” (Cell Discovery, 2024).

How the values were obtained:
[1] = target: the molecule itself; test: cryo-EM structure; MBP-PML_(46–256) dimer fraction from SEC, ~3 mg/mL; non-tilt and 40°-tilt data; C2 symmetry imposed; 5.3 Å overall
[2] = target: the molecule itself; test: cross-linking; XL-MS: purified SEC fractions crosslinked with 2 mM BS3 at 4 °C for 2 h; trypsin digest, LC-MS/MS, pLink2; intra-subunit XLs of the monomer fraction subtracted from those of the dimer
[3] = target: the molecule itself; test: SEC; analytical size exclusion on Superdex 200 Increase 10/300 GL in 20 mM HEPES, pH 7.4, 100 mM NaCl, 4% glycerol; all truncations N-terminally fused to MBP

B1: MBP-PML_(46–256) (domain or fragment, human, UniProt P29590 46-256, looked up)
chain: PASEEEFQFLRCQQCQAEAKCPKLLPCLHTLCSGCLEASGMQCPICQAPWPLGADTPALDNVFFESLQRRLSVYRQIVDAQAVCTRCKESADFWCFECEQLLCAKCFEAHQWFLKHEARPLAELRNQSVREFLDGTRKTNNIFCSNPNHRTPTLTSIYCRGCSKPLCCSCALLDSSHSELKCDISAEIQQRQEELDAMTQALQEQDSAFGA
notes: Monomer and dimer fractions were separated by SEC; The cryo-EM model covers P46-S221; also called PML RBCC fragment; PML RBCC dimer; source: E. coli BL21(DE3), purified (amylose column, Superdex 200 Increase SEC); not shown: MBP, N-terminal, kept
- stoichiometry N [1]: 2

B2: PML_(46–362) (domain or fragment, human, UniProt P29590 46-362, looked up)
chain: PASEEEFQFLRCQQCQAEAKCPKLLPCLHTLCSGCLEASGMQCPICQAPWPLGADTPALDNVFFESLQRRLSVYRQIVDAQAVCTRCKESADFWCFECEQLLCAKCFEAHQWFLKHEARPLAELRNQSVREFLDGTRKTNNIFCSNPNHRTPTLTSIYCRGCSKPLCCSCALLDSSHSELKCDISAEIQQRQEELDAMTQALQEQDSAFGAVHAQMHAAVGQLGRARAETEELIRERVRQVVAHVRAQERELLEAVDARYQRDYEEMASRLGRLDAVLQRIRTGSALVQRMKCYASDQEVLDMHGFLRQALCRLRQE
notes: PML (TRIM19), human, residues 46-362, the complete RBCC domain; also called truncated protein PML_(46–362); complete RBCC domain; source: E. coli BL21(DE3), purified; not shown: MBP, N-terminal, cleaved
- binding result [2]: binds

B3: MBP-PML_(46–362) (domain or fragment, human, UniProt P29590 46-362, looked up)
chain: PASEEEFQFLRCQQCQAEAKCPKLLPCLHTLCSGCLEASGMQCPICQAPWPLGADTPALDNVFFESLQRRLSVYRQIVDAQAVCTRCKESADFWCFECEQLLCAKCFEAHQWFLKHEARPLAELRNQSVREFLDGTRKTNNIFCSNPNHRTPTLTSIYCRGCSKPLCCSCALLDSSHSELKCDISAEIQQRQEELDAMTQALQEQDSAFGAVHAQMHAAVGQLGRARAETEELIRERVRQVVAHVRAQERELLEAVDARYQRDYEEMASRLGRLDAVLQRIRTGSALVQRMKCYASDQEVLDMHGFLRQALCRLRQE
notes: PML (TRIM19), human, residues 46-362; source: E. coli BL21(DE3), purified; not shown: MBP, N-terminal, kept
- binding result [3]: binds

B4: MBP-PML_(46–391) (domain or fragment, human, UniProt P29590 46-391, looked up)
chain: PASEEEFQFLRCQQCQAEAKCPKLLPCLHTLCSGCLEASGMQCPICQAPWPLGADTPALDNVFFESLQRRLSVYRQIVDAQAVCTRCKESADFWCFECEQLLCAKCFEAHQWFLKHEARPLAELRNQSVREFLDGTRKTNNIFCSNPNHRTPTLTSIYCRGCSKPLCCSCALLDSSHSELKCDISAEIQQRQEELDAMTQALQEQDSAFGAVHAQMHAAVGQLGRARAETEELIRERVRQVVAHVRAQERELLEAVDARYQRDYEEMASRLGRLDAVLQRIRTGSALVQRMKCYASDQEVLDMHGFLRQALCRLRQEEPQSLQAAVRTDGFDEFKVRLQDLSSCIT
notes: source: E. coli BL21(DE3), purified; not shown: MBP, N-terminal, kept
- binding result [3]: binds
